Laboratory results published in patent US20150344570A1 (published 2015).

B1: GpH7-A5/GpH7-B3 variant A327_09D/GpL16-k0 (antibody, human IgG1, kappa)
heavy 1: not shown
heavy 2: not shown
light: DIVMTQSPLSLPVTPGEPASISCQASESLVHSNRNTYLHWYLQKPGQSPQLLIYKVSNRFSGVPDRFSGSGSGTDFTLKISRVEAEDVGVYYCSQNTHVPPTFGQGTKVEIERTVAAPSVFIFPPSDEQLKSGTASVVCLLNNFYPREAKVQWKVDNALQSGNSQESVTEQDSKDSTYSLSSTLTLSKADYEKHKVYACEVTHQGLSSPVTKSFNRGEC
notes: also called He Ab A327_09D
B2: GpH7-A5/GpH7-B3 variant G236_07I/GpL16-k0 (antibody, human IgG1, kappa)
heavy 1: not shown
heavy 2: not shown
light: B1 light
notes: also called He Ab G236_07I
B3: GpH7-B3 variant Y296_18N/GpL16-k0 (antibody, human IgG1, kappa)
heavy: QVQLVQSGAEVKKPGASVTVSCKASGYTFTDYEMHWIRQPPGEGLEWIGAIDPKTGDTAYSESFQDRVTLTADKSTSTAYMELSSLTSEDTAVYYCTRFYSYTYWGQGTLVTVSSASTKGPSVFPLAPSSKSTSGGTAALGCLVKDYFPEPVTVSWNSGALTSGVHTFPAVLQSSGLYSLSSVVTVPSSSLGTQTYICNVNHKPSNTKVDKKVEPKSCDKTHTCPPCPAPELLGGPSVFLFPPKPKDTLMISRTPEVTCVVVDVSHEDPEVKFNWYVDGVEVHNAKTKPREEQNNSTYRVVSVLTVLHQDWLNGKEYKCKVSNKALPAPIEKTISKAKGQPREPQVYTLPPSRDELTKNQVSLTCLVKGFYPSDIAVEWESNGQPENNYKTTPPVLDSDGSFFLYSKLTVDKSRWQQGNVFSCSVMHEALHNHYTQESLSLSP
light: B1 light
notes: also called Ho Ab Y296_18N
B4: GpH7-A5/GpH7-B3 variant L234_04F/GpL16-k0 (antibody, human IgG1, kappa)
heavy 1: not shown
heavy 2: not shown
light: B1 light
notes: also called He Ab L234_04F
B5: GpH7-A5/GpH7-B3 variant S337_20W/GpL16-k0 (antibody, human IgG1, kappa)
heavy 1: not shown
heavy 2: not shown
light: B1 light
notes: also called He Ab S337_20W
B6: GpH7-A5/GpH7-B3 variant K334_19Q/GpL16-k0 (antibody, human IgG1, kappa)
heavy 1: not shown
heavy 2: not shown
light: B1 light
notes: also called He Ab K334_19Q
B7: GpH7-A5/GpH7-B3 variant H268_02A/GpL16-k0 (antibody, human IgG1, kappa)
heavy 1: not shown
heavy 2: not shown
light: B1 light
notes: also called He Ab H268_02A
B8: GpH7-A5/GpH7-B3 variant H268_19Q/GpL16-k0 (antibody, human IgG1, kappa)
heavy 1: not shown
heavy 2: not shown
light: B1 light
notes: also called He Ab H268_19Q
B9: GpH7-A5/GpH7-B3 variant S239_08L/GpL16-k0 (antibody, human IgG1, kappa)
heavy 1: not shown
heavy 2: not shown
light: B1 light
notes: also called He Ab S239_08L
B10: GpH7-A5/GpH7-B3 variant H268_18N/GpL16-k0 (antibody, human IgG1, kappa)
heavy 1: not shown
heavy 2: not shown
light: B1 light
notes: also called He Ab H268_18N
B11: GpH7-A5/GpH7-B3 variant Y296_09D/GpL16-k0 (antibody, human IgG1, kappa)
heavy 1: not shown
heavy 2: not shown
light: B1 light
notes: also called He Ab Y296_09D
B12: GpH7-A5/GpH7-B3 variant S267_09D/GpL16-k0 (antibody, human IgG1, kappa)
heavy 1: not shown
heavy 2: not shown
light: B1 light
notes: also called He Ab S267_09D
B13: GpH7-A5/GpH7-B3 variant E333_13S/GpL16-k0 (antibody, human IgG1, kappa)
heavy 1: not shown
heavy 2: not shown
light: B1 light
notes: also called He Ab E333_13S
B14: GpH7-A5/GpH7-B3 variant S337_08L/GpL16-k0 (antibody, human IgG1, kappa)
heavy 1: not shown
heavy 2: not shown
light: B1 light
notes: also called He Ab S337_08L
B15: GpH7-A5/GpH7-B3 variant A330_16H/GpL16-k0 (antibody, human IgG1, kappa)
heavy 1: not shown
heavy 2: not shown
light: B1 light
notes: also called He Ab A330_16H
B16: GpH7-A5/GpH7-B3 variant G236_03V/GpL16-k0 (antibody, human IgG1, kappa)
heavy 1: not shown
heavy 2: not shown
light: B1 light
notes: also called He Ab G236_03V
B17: GpH7-A5/GpH7-B3 variant A330_19Q/GpL16-k0 (antibody, human IgG1, kappa)
heavy 1: not shown
heavy 2: not shown
light: B1 light
notes: also called He Ab A330_19Q
B18: GpH7-A5/GpH7-B3 variant I336_06M/GpL16-k0 (antibody, human IgG1, kappa)
heavy 1: not shown
heavy 2: not shown
light: B1 light
notes: also called He Ab I336_06M
B19: GpH7-A5/GpH7-B3 variant Y296_04F/GpL16-k0 (antibody, human IgG1, kappa)
heavy 1: not shown
heavy 2: not shown
light: B1 light
notes: also called He Ab Y296_04F
B20: GpH7-A5/GpH7-B3 variant S239_10E/GpL16-k0 (antibody, human IgG1, kappa)
heavy 1: not shown
heavy 2: not shown
light: B1 light
notes: also called He Ab S239_10E
B21: GpH7-A5/GpH7-B3 variant G236_15Y/GpL16-k0 (antibody, human IgG1, kappa)
heavy 1: not shown
heavy 2: not shown
light: B1 light
notes: also called He Ab G236_15Y
B22: GpH7-B3 variant T335_07I/GpL16-k0 (antibody, human IgG1, kappa)
heavy: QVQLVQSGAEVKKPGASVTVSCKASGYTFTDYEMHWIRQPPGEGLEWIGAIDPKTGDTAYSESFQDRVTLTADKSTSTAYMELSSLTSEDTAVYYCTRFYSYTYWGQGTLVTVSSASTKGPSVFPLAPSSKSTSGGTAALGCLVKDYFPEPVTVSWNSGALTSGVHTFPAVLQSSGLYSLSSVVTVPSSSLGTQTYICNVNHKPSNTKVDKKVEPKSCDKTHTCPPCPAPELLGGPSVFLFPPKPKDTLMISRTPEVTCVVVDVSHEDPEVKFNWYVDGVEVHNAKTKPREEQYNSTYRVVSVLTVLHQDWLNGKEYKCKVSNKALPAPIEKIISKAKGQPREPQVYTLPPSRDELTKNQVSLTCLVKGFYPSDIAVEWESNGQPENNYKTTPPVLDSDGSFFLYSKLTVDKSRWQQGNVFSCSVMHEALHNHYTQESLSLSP
light: B1 light
notes: also called Ho Ab T335_07I
B23: GpH7-A5/GpH7-B3 variant I336_03V/GpL16-k0 (antibody, human IgG1, kappa)
heavy 1: not shown
heavy 2: not shown
light: B1 light
notes: also called He Ab I336_03V
B24: GpH7-B3 variant T335_16H/GpL16-k0 (antibody, human IgG1, kappa)
heavy: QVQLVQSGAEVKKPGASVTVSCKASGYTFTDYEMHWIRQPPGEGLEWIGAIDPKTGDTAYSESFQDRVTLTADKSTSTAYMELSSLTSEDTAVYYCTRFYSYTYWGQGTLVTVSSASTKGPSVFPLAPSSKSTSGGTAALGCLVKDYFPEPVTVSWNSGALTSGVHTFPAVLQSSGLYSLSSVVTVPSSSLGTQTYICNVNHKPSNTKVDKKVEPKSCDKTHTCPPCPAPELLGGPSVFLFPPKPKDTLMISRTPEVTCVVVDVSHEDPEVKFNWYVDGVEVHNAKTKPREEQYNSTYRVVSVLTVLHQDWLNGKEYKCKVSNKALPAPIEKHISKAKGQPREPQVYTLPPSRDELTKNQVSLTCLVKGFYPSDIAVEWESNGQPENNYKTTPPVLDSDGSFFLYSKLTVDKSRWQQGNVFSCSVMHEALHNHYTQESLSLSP
light: B1 light
notes: also called Ho Ab T335_16H
B25: GpH7-B3 variant S337_09D/GpL16-k0 (antibody, human IgG1, kappa)
heavy: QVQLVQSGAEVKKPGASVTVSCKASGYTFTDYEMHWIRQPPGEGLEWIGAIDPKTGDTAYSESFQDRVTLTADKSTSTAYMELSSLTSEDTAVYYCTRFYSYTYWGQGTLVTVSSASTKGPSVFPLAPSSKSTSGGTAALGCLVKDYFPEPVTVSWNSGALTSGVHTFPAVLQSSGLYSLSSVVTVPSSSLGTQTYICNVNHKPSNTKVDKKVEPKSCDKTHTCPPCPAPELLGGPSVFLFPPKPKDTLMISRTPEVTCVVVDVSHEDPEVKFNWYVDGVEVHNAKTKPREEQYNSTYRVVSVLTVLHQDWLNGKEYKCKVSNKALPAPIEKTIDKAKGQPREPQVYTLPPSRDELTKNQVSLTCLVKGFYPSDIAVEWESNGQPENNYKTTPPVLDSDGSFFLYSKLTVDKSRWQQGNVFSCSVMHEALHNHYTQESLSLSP
light: B1 light
notes: also called Ho Ab S337_09D
B26: GpH7-A5/GpH7-B3 variant T335_20W/GpL16-k0 (antibody, human IgG1, kappa)
heavy 1: not shown
heavy 2: not shown
light: B1 light
notes: also called He Ab T335_20W
B27: GpH7-B3 variant T335_13S/GpL16-k0 (antibody, human IgG1, kappa)
heavy: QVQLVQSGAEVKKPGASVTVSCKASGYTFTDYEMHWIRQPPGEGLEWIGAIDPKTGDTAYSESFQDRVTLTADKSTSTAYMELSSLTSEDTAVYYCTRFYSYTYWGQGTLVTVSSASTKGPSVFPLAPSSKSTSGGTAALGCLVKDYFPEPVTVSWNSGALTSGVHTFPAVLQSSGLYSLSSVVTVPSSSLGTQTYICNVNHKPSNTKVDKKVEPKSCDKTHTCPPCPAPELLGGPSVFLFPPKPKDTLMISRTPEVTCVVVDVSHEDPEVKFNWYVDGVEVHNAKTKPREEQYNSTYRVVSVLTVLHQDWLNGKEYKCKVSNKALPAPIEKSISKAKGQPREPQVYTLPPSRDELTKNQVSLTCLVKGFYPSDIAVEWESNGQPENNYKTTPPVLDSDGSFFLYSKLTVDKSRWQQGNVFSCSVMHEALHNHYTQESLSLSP
light: B1 light
notes: also called Ho Ab T335_13S
B28: GpH7-A5/GpH7-B3 variant T335_18N/GpL16-k0 (antibody, human IgG1, kappa)
heavy 1: not shown
heavy 2: not shown
light: B1 light
notes: also called He Ab T335_18N
B29: GpH7-A5/GpH7-B3 variant E333_08L/GpL16-k0 (antibody, human IgG1, kappa)
heavy 1: not shown
heavy 2: not shown
light: B1 light
notes: also called He Ab E333_08L
B30: GpH7-B3 variant T335_10E/GpL16-k0 (antibody, human IgG1, kappa)
heavy: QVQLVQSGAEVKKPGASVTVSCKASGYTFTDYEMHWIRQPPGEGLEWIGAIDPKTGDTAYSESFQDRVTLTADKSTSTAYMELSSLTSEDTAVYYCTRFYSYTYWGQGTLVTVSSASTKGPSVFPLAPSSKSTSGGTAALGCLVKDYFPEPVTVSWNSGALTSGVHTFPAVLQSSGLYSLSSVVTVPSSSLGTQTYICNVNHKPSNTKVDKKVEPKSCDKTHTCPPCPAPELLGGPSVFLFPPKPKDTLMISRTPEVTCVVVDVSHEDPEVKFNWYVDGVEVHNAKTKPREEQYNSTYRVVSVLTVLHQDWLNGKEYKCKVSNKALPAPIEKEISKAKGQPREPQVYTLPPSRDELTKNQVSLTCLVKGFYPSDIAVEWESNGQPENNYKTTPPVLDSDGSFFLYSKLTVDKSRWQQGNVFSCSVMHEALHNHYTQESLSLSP
light: B1 light
notes: also called Ho Ab T335_10E
B31: GpH7-A5/GpH7-B3 variant K334_13S/GpL16-k0 (antibody, human IgG1, kappa)
heavy 1: not shown
heavy 2: not shown
light: B1 light
notes: also called He Ab K334_13S
B32: GpH7-A5/GpH7-B3 variant E333_09D/GpL16-k0 (antibody, human IgG1, kappa)
heavy 1: not shown
heavy 2: not shown
light: B1 light
notes: also called He Ab E333_09D
B33: GpH7-A5/GpH7-B3 variant Y296_16H/GpL16-k0 (antibody, human IgG1, kappa)
heavy 1: not shown
heavy 2: not shown
light: B1 light
notes: also called He Ab Y296_16H
B34: GpH7-A5/GpH7-B3 variant S267_10E/GpL16-k0 (antibody, human IgG1, kappa)
heavy 1: not shown
heavy 2: not shown
light: B1 light
notes: also called He Ab S267_10E
B35: GpH7-A5/GpH7-B3 variant E333_14T/GpL16-k0 (antibody, human IgG1, kappa)
heavy 1: not shown
heavy 2: not shown
light: B1 light
notes: also called He Ab E333_14T
B36: GpH7-B3 variant T335_01G/GpL16-k0 (antibody, human IgG1, kappa)
heavy: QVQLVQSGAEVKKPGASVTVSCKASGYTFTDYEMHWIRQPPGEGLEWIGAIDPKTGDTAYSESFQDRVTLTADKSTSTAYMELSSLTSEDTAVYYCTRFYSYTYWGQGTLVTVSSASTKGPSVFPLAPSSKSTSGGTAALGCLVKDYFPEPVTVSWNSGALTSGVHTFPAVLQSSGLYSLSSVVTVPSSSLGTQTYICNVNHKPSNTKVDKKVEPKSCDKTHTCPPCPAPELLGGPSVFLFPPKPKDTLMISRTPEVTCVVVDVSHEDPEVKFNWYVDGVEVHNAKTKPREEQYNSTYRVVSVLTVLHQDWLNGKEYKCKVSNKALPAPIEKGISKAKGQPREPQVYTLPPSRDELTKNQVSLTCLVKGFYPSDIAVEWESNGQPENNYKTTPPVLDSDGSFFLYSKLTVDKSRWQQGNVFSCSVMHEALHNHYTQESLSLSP
light: B1 light
notes: also called Ho Ab T335_01G
B37: GpH7-A5/GpH7-B3 variant I336_18N/GpL16-k0 (antibody, human IgG1, kappa)
heavy 1: not shown
heavy 2: not shown
light: B1 light
notes: also called He Ab I336_18N
B38: GpH7-A5/GpH7-B3 variant I336_08L/GpL16-k0 (antibody, human IgG1, kappa)
heavy 1: not shown
heavy 2: not shown
light: B1 light
notes: also called He Ab I336_08L
B39: GpH7-A5/GpH7-B3 variant K326_07I/GpL16-k0 (antibody, human IgG1, kappa)
heavy 1: not shown
heavy 2: not shown
light: B1 light
notes: also called He Ab K326_07I
B40: GpH7-B3 variant T335_15Y/GpL16-k0 (antibody, human IgG1, kappa)
heavy: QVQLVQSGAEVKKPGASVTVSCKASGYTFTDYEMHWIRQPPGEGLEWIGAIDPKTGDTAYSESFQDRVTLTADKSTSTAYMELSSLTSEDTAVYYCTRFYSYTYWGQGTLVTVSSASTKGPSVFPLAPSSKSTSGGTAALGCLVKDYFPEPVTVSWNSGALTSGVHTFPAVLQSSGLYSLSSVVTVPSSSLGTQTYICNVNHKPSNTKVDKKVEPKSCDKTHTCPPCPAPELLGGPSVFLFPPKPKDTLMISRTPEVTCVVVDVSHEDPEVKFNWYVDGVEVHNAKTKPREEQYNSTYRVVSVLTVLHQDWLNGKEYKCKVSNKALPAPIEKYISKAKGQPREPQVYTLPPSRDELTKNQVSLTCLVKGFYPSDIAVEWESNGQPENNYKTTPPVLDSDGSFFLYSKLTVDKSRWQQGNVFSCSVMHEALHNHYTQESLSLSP
light: B1 light
notes: also called Ho Ab T335_15Y
B41: GpH7-B3 variant S324_02A/GpL16-k0 (antibody, human IgG1, kappa)
heavy: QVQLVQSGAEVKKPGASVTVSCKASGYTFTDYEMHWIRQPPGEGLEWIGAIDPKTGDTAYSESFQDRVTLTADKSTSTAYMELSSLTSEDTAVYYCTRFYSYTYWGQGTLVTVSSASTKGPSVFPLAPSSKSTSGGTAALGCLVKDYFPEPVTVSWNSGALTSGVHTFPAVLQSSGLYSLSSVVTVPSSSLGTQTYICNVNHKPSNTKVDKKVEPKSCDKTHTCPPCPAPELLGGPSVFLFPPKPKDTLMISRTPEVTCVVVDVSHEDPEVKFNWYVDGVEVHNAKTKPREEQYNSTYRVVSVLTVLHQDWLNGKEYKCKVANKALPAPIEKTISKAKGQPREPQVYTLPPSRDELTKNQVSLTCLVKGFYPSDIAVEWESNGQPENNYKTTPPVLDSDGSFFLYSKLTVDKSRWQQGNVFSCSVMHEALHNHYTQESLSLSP
light: B1 light
notes: also called Ho Ab S324_02A
B42: GpH7-A5/GpH7-B3 variant I336_10E/GpL16-k0 (antibody, human IgG1, kappa)
heavy 1: not shown
heavy 2: not shown
light: B1 light
notes: also called He Ab I336_10E
B43: GpH7-A5/GpH7-B3 variant L234_15Y/GpL16-k0 (antibody, human IgG1, kappa)
heavy 1: not shown
heavy 2: not shown
light: B1 light
notes: also called He Ab L234_15Y
B44: GpH7-A5/GpH7-B3 variant V266_08L/GpL16-k0 (antibody, human IgG1, kappa)
heavy 1: not shown
heavy 2: not shown
light: B1 light
notes: also called He Ab V266_08L
B45: GpH7-A5/GpH7-B3 variant E333_04F/GpL16-k0 (antibody, human IgG1, kappa)
heavy 1: not shown
heavy 2: not shown
light: B1 light
notes: also called He Ab E333_04F
B46: GpH7-A5/GpH7-B3 variant K326_06M/GpL16-k0 (antibody, human IgG1, kappa)
heavy 1: not shown
heavy 2: not shown
light: B1 light
notes: also called He Ab K326_06M
B47: GpH7-A5/GpH7-B3 variant S337_07I/GpL16-k0 (antibody, human IgG1, kappa)
heavy 1: not shown
heavy 2: not shown
light: B1 light
notes: also called He Ab S337_07I
B48: GpH7-A5/GpH7-B3 variant K326_01G/GpL16-k0 (antibody, human IgG1, kappa)
heavy 1: not shown
heavy 2: not shown
light: B1 light
notes: also called He Ab K326_01G
B49: GpH7-B3 variant T335_19Q/GpL16-k0 (antibody, human IgG1, kappa)
heavy: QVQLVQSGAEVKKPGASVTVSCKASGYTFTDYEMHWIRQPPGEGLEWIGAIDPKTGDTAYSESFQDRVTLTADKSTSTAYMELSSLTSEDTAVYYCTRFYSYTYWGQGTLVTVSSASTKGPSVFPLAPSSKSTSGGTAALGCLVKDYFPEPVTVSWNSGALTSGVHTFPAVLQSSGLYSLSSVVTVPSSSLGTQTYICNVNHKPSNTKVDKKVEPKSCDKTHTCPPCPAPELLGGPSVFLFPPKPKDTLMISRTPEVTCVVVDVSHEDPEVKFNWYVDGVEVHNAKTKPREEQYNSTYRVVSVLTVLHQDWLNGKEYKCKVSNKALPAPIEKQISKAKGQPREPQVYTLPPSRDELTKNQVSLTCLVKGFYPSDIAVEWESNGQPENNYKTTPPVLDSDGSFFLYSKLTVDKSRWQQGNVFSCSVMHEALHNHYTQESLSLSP
light: B1 light
notes: also called Ho Ab T335_19Q
B50: GpH7-A5/GpH7-B3 variant L234_20W/GpL16-k0 (antibody, human IgG1, kappa)
heavy 1: not shown
heavy 2: not shown
light: B1 light
notes: also called He Ab L234_20W
B51: GpH7-A5/GpH7-B3 variant K326_12R/GpL16-k0 (antibody, human IgG1, kappa)
heavy 1: not shown
heavy 2: not shown
light: B1 light
notes: also called He Ab K326_12R
B52: GpH7-B3 variant S337_10E/GpL16-k0 (antibody, human IgG1, kappa)
heavy: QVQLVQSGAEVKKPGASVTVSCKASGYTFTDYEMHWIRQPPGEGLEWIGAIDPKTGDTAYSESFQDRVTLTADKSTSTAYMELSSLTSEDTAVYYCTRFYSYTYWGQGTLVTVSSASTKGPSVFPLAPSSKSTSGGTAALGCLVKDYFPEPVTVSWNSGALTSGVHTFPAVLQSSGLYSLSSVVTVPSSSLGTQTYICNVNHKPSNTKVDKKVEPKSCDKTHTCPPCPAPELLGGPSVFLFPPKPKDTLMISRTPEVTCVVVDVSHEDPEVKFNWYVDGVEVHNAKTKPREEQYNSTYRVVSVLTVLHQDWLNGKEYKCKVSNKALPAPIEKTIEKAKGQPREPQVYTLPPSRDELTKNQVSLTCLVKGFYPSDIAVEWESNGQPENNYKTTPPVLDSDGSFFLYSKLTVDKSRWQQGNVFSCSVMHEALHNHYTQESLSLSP
light: B1 light
notes: also called Ho Ab S337_10E
B53: GpH7-A5/GpH7-B3 variant G236_04F/GpL16-k0 (antibody, human IgG1, kappa)
heavy 1: not shown
heavy 2: not shown
light: B1 light
notes: also called He Ab G236_04F
B54: GpH7-B3 variant V266_07I/GpL16-k0 (antibody, human IgG1, kappa)
heavy: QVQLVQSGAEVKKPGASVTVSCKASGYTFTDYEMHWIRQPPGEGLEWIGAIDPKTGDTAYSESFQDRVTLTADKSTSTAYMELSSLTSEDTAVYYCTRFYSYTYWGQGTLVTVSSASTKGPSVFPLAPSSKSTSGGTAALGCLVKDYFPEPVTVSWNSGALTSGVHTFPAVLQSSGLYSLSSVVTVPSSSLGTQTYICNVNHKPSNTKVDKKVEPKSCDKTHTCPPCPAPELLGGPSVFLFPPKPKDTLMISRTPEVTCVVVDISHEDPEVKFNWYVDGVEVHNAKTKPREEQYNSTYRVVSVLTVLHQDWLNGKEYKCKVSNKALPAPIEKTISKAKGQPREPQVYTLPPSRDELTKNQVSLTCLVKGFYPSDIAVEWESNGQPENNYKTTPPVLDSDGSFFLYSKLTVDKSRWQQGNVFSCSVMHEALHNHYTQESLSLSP
light: B1 light
notes: also called Ho Ab V266_07I
B55: GpH7-A5/GpH7-B3 variant G236_14T/GpL16-k0 (antibody, human IgG1, kappa)
heavy 1: not shown
heavy 2: not shown
light: B1 light
notes: also called He Ab G236_14T

Key:
FcγRIIa H [1] = molecular target: T1, FcγRIIa H (human, UniProt P12318 34-217); test: SPR Biacore, captured antibody, FcγR analyte; vs GpH7-A5/GpH7-B3/GpL16-k0 = 100
T1 sequence (P12318 34-217): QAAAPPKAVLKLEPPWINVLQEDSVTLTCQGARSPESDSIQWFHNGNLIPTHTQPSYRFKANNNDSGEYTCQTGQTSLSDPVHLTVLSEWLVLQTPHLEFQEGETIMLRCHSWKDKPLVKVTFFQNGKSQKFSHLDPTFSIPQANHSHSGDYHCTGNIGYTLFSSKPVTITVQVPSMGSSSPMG

FcγRIIa H [2] = molecular target: T1, FcγRIIa H; test: SPR Biacore, captured antibody, FcγR analyte; vs GpH7-B3/GpL16-k0 = 100

Row | He/Con_2aH (FcγRIIa H [1]) | Ho/Con_2aH (FcγRIIa H [2]) | Binder
1 | 105 % of control |  | B1
2 | 115 % of control |  | B2
3 |  | 100 % of control | B3
4 | 120 % of control |  | B4
5 | 102 % of control |  | B5
6 | 101 % of control |  | B6
7 | 114 % of control |  | B7
8 | 102 % of control |  | B8
9 | 105 % of control |  | B9
10 | 112 % of control |  | B10
11 | 104 % of control |  | B11
12 | 105 % of control |  | B12
13 | 101 % of control |  | B13
14 | 100 % of control |  | B14
15 | 101 % of control |  | B15
16 | 119 % of control |  | B16
17 | 102 % of control |  | B17
18 | 106 % of control |  | B18
19 | 100 % of control |  | B19
20 | 112 % of control |  | B20
21 | 136 % of control |  | B21
22 |  | 105 % of control | B22
23 | 102 % of control |  | B23
24 |  | 100 % of control | B24
25 |  | 107 % of control | B25
26 | 105 % of control |  | B26
27 |  | 101 % of control | B27
28 | 103 % of control |  | B28

Row | He/Con_2aH (FcγRIIa H [1]) | Ho/Con_2aH (FcγRIIa H [2]) | Binder
29 | 102 % of control |  | B29
30 |  | 105 % of control | B30
31 | 102 % of control |  | B31
32 | 103 % of control |  | B32
33 | 104 % of control |  | B33
34 | 102 % of control |  | B34
35 | 100 % of control |  | B35
36 |  | 101 % of control | B36
37 | 103 % of control |  | B37
38 | 106 % of control |  | B38
39 | 100 % of control |  | B39
40 |  | 102 % of control | B40
41 |  | 102 % of control | B41
42 | 102 % of control |  | B42
43 | 120 % of control |  | B43
44 | 104 % of control |  | B44
45 | 102 % of control |  | B45
46 | 103 % of control |  | B46
47 | 101 % of control |  | B47
48 | 100 % of control |  | B48
49 |  | 103 % of control | B49
50 | 114 % of control |  | B50
51 | 101 % of control |  | B51
52 |  | 101 % of control | B52
53 | 118 % of control |  | B53
54 |  | 104 % of control | B54
55 | 103 % of control |  | B55
